Measurements: patent publication CN115960237A

Target: OXA-48酶抗原 (recombinant OXA-48 enzyme antigen) (UniProt Q6XEC0)
Test: indirect ELISA, OXA-48 antigen coated at 100 ng per well, goat anti-rabbit IgG-HRP, OD450

UniProt Q6XEC0, sequence (Q6XEC0 23-265 limits assumed): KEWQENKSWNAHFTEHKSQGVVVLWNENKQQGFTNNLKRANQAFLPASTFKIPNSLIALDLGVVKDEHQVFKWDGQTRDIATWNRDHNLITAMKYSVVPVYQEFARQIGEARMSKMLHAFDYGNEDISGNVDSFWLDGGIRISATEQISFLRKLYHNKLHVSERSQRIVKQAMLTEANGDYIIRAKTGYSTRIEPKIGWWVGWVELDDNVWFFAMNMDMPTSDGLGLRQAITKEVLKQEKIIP

B1: 第二单克隆抗体 (second anti-OXA-48 enzyme monoclonal antibody) (antibody, V domains shown)
VH: EVQLVESGGGLVKPGGSLRLSCAASGFTFSGYWMHWVRQAPEKGLVWVAYINSDGSSTNYADSVKGRFTISRDNAKNTLFLQMNSLRAEDTAMYYCARGGGYSYGPFDYWGQGTSVTVSS
VL: QSVLTQPSSASTSPGSSVKLSCTGTSSDIGNNDYVSWYQQYMGRPPTNIIYDVSRRPSGVSDRFSGSIDRSSNTAFLTVNNVQADDEADYYCSSYAGSSNLVFGGGTKLTV
OD值 (OD450 at 1:1280000 dilution): > 0.5 OD
效价 (ELISA titer) (dilution factor (1:x)): 1.28e+06

B2: 第一单克隆抗体 (first anti-OXA-48 enzyme monoclonal antibody) (antibody, V domains shown)
VH: EVKLVESGGGLVQPGRSLRLSCATSGFTFADYSMTWVRQPPGKGLEWVGLIKRNAYGGTTEYAASVRGRFTISRDNSQSIAYLQMNTLRTEDTPAYYCLRGYSGYDWEGLDAFDVWGQGTMVTVSS
VL: DIVMSQSPSSLAVSLGEKVTINCKSGQSVLFTSNNKNYLAWYQQKPGQPPKLLISWASTRESGVPDRFSGSGSGTDFTLAISSVQAEDVAVYYCQQYYSPGPFTFGQGTKVEIK
OD值 (OD450 at 1:1280000 dilution): 0.5 OD
效价 (ELISA titer) (dilution factor (1:x)): 1.28e+06
